# ± gives the standard deviation of the averaged measurements.
# System: ATP
# Assay: switch fluorescence ratio, 500 uM ATP over buffer (Cy3 cluster intensity, sum of 5 cycles each) (fold (ratio)); higher = stronger signal-on switching upon ATP binding; sequences stand for … in TCGTCGGCAGCGTCAGATGTGTATAAGAGACAGTTTTTTTTTTTTTTTTTTTTTTTTT…TC
# Settings: aptamer strand: ATP DNA aptamer (quencher-CACCTGGGGGAGTATTGCGGAGGAAGG + anchor), 100 nM annealed; ATP concentration: 500 uM
# Summary of the method: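 Exposure to 500 uM ATP lasted 15 min at 22 °C before imaging, and a selection-buffer image was taken beforehand, for Cy3-labelled switching-strand clusters on a modified Illumina MiSeq flow-cell annealed to 100 nM quencher-labelled ATP aptamer. Five buffer/ATP cycles were run with NaOH stripping and re-annealing between them. The fluorescence ratio per cluster is summed target-cycle over summed buffer-cycle Cy3 intensity, averaged per switch-domain sequence. Clusters outside 100-1000 RFU were excluded.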
row,Sequence,switch fluorescence ratio
1,ATAAGGGCGA,0.985 ± 0.028
2,ATAAGGGCGT,1.001 ± 0.0065
3,ATAAGGTCTA,0.971 ± 0.015
4,ATAAGGTTGT,0.977 ± 0.025
5,ATAAGTAAAT,1 ± 0.018
6,ATAAGTCCGA,0.99 ± 0.026
7,ATAAGTGCTG,0.991 ± 0.017
8,ATAATACCTT,1.15 ± 0.094
9,ATAATATGTT,0.9911 ± 0.004
10,ATAATCAAGG,1.01 ± 0.032
11,ATAATCGATT,0.978 ± 0.011
12,ATAATCTATC,0.995 ± 0.045
13,ATAATCTGCG,1.01 ± 0.012
14,ATAATCTGTG,0.986 ± 0.0023
15,ATAATGACGT,1.01 ± 0.049
16,ATAATGGTGT,1.03 ± 0.029
17,ATAATTAACG,0.986 ± 0.034
18,ATAATTAAGA,0.992 ± 0.014
19,ATAATTAGTA,0.9455 ± 0.0079
20,ATAATTCGGT,0.985 ± 0.025
21,ATAATTTAGT,0.982 ± 0.028
22,ATAATTTTAC,1.07 ± 0.041
23,ATAATTTTCA,1.01 ± 0.03
24,ATAATTTTGG,0.973 ± 0.017
25,ATACAAGGCT,1.02 ± 0.03

row,Sequence,switch fluorescence ratio
1,ATACACATAG,1.04 ± 0.014
2,ATACGAGAAT,1 ± 0.023
3,ATACGAGGGC,1.01 ± 0.028
4,ATACGAGTGC,1.01 ± 0.012
5,ATACGATATT,1.142 ± 0.0033
6,ATACGATTGG,0.9674 ± 0.0044
7,ATACGCAGCG,0.998 ± 0.01
8,ATACGGATGG,0.984 ± 0.033
9,ATACGGGAGT,1 ± 0.0018
10,ATACGGGATT,1.044 ± 0.0064
11,ATACGGGGTA,1.03 ± 0.054
12,ATACGGTAAT,1.16 ± 0.052
13,ATACGTCGGC,0.984 ± 0.046
14,ATACGTTCGG,1.01 ± 0.0015
15,ATACTCGCGT,1.014 ± 0.01
16,ATACTCTTAT,1.03 ± 0.04
17,ATACTGCTCT,0.968 ± 0.059
18,ATACTGGAAA,1.011 ± 0.01
19,ATACTGGGAT,1.031 ± 0.0015
20,ATACTTAAGG,1.016 ± 0.0013
21,ATACTTATTT,1.03 ± 0.018
22,ATACTTTAAA,1.17 ± 0.1
23,ATACTTTTGC,0.952 ± 0.034
24,ATAGAAAAAT,1.003 ± 0.0098
25,ATAGAAGGGG,1.08 ± 0.14

row,Sequence,switch fluorescence ratio
1,ATAGAATAGG,0.9867 ± 0.0065
2,ATAGAATTTA,0.956 ± 0.024
3,ATAGACGGAT,0.987 ± 0.06
4,ATAGAGACTA,1.006 ± 0.0078
5,ATAGAGGCTA,0.992 ± 0.025
6,ATAGAGTTTG,0.976 ± 0.0014
7,ATAGATCATC,1.05 ± 0.02
8,ATAGATGAGG,1.007 ± 0.0046
9,ATAGATTAGG,0.9854 ± 0.0092
10,ATAGCAGGGT,1 ± 0.012
11,ATAGCAGGTG,2.9 ± 1.1
12,ATAGCCCGCT,1.03 ± 0.0014
13,ATAGCCGTGC,1.017 ± 0.0054
14,ATAGCGGTCG,1.01 ± 0.07
15,ATAGCTGTTA,0.978 ± 0.05
16,ATAGCTTGGG,0.985 ± 0.017
17,ATAGGAACGT,1.08 ± 0.1
18,ATAGGAATTT,0.993 ± 0.021
19,ATAGGACAAC,1.038 ± 0.0081
20,ATAGGACGGG,0.967 ± 0.028
21,ATAGGAGTGC,1.01 ± 0.023
22,ATAGGATATA,1.03 ± 0.018
23,ATAGGATCAC,1.02 ± 0.028
24,ATAGGATCAT,0.975 ± 0.03
25,ATAGGATCGC,0.99 ± 0.039

row,Sequence,switch fluorescence ratio
1,ATAGGATTTA,0.989 ± 0.013
2,ATAGGCATTT,1.03 ± 0.013
3,ATAGGGAAGT,1 ± 0.017
4,ATAGGGAATG,0.9986 ± 0.007
5,ATAGGGAGGG,1.012 ± 0.0048
6,ATAGGGCACA,1.08 ± 0.015
7,ATAGGGGACG,1.01 ± 0.049
8,ATAGGGGTGG,1.03 ± 0.018
9,ATAGGGTGCG,1 ± 0.03
10,ATAGGTAGGT,0.996 ± 0.004
11,ATAGGTAGTC,0.996 ± 0.02
12,ATAGGTCCCG,1 ± 0.017
13,ATAGGTGCGG,0.985 ± 0.021
14,ATAGTAATCT,0.993 ± 0.056
15,ATAGTACAGG,1.08 ± 0.011
16,ATAGTACTCG,1.06 ± 0.057
17,ATAGTAGGTT,1.01 ± 0.017
18,ATAGTCAATT,0.993 ± 0.071
19,ATAGTCACAT,1.02 ± 0.021
20,ATAGTCAGTA,1.01 ± 0.019
21,ATAGTCCAGC,0.988 ± 0.035
22,ATAGTCTACG,1.02 ± 0.042
23,ATAGTGGAGA,1.01 ± 0.024
24,ATAGTGGGAG,0.992 ± 0.04
25,ATAGTGGGTC,1.04 ± 0.025

# Source: the supplement of paper PMC10126150
